Residue numbers refer to the chain shown, from its start. Names may count otherwise. “And” between values parts separate entries of the source, which are not always exact repeats. Equal entries are not always repeated.
B1: E104.v2 IgG1 hinge variant G1 + GG (antibody, V domains shown)
VH: EVQLVESGPGLVKPSETLSLTCTVSRFSLIGYAITWIRQPPGKGLEWIGGISSAATTFYSSWAKSRVTISRDTSKNQVSLKLSSVTAADTAVYYCARDPRGYGAALDRLDLWGQGTLVTVSS
VL: DIQMTQSPSSLSASVGDRVTITCQSIKSVYNNRLGWYQQKPGKAPKLLIYETSILTSGVPSRFSGSGSGTDFTLTISSLQPEDFATYYCAGGFDRSGDTTFGQGTKVEIK
notes: humanized E104.v2 VH: as the VH of Sm2 (E104.v1, PDB 6VVU heavy chain) with V71R and F78V (Kabat numbering); human IgG1 heavy chain constant region, the CH1 domain up to the upper hinge; human IgG1 heavy chain constant region after the upper hinge (core and lower hinge, CH2, CH3); IgG1 with extended upper hinge; copies: 2 + 2
B2: humanized E104.v2 IgG2 (antibody, V domains shown)
VH: B1 VH
VL: B1 VL
notes: humanized E104.v2 VH: as the VH of Sm2 (E104.v1, PDB 6VVU heavy chain) with V71R and F78V (Kabat numbering); human IgG2 heavy chain constant region, the CH1 domain up to the upper hinge; upper hinge of human IgG2; human IgG2 heavy chain constant region after the upper hinge (core and lower hinge, CH2, CH3); IgG2 isotype version of E104.v2; copies: 2 + 2
B3: humanized E104.v1 IgG1 (antibody, V domains shown)
VH: B1 VH with R71V, V78F
VL: B1 VL
notes: humanized E104.v1 VH (rabbit E104 CDRs on the human VHIV consensus framework); Kabat numbering; human IgG1 heavy chain constant region, the CH1 domain up to the upper hinge; upper hinge of human IgG1, wild type; human IgG1 heavy chain constant region after the upper hinge (core and lower hinge, CH2, CH3); humanized E104 light chain (rabbit E104 CDRs on the human VLKI consensus framework); IgG1; …
B4: E104.v2 IgG1 hinge variant G1-TH (antibody, V domains shown)
VH: B1 VH
VL: B1 VL
notes: humanized E104.v2 VH: as the VH of Sm2 (E104.v1, PDB 6VVU heavy chain) with V71R and F78V (Kabat numbering); human IgG1 heavy chain constant region, the CH1 domain up to the upper hinge; human IgG1 heavy chain constant region after the upper hinge (core and lower hinge, CH2, CH3); IgG1 with shortened upper hinge; copies: 2 + 2
B5: humanized E104.v2 IgG1 (antibody, V domains shown)
VH: B1 VH
VL: B1 VL
notes: humanized E104.v2 VH: as the VH of Sm2 (E104.v1, PDB 6VVU heavy chain) with V71R and F78V (Kabat numbering); human IgG1 heavy chain constant region, the CH1 domain up to the upper hinge; upper hinge of human IgG1, wild type; human IgG1 heavy chain constant region after the upper hinge (core and lower hinge, CH2, CH3); v1 and v2 differ only in the heavy chain; IgG1; also called IgG1.v2; copies: 2 …
B6: E104.v2 IgG1 hinge variant G1 + G (antibody, V domains shown)
VH: B1 VH
VL: B1 VL
notes: as for B1
B7: humanized E104.v2 IgG4 (antibody, V domains shown)
VH: B1 VH
VL: B1 VL
notes: humanized E104.v2 VH: as the VH of Sm2 (E104.v1, PDB 6VVU heavy chain) with V71R and F78V (Kabat numbering); human IgG4 heavy chain constant region, the CH1 domain up to the upper hinge; upper hinge of human IgG4; human IgG4 heavy chain constant region after the upper hinge (core and lower hinge, CH2, CH3); IgG4 isotype version of E104.v2; copies: 2 + 2
B8: E104.v2 IgG1 hinge variant G1-KTH (antibody, V domains shown)
VH: B1 VH
VL: B1 VL
notes: as for B4
B9: E104.v2 IgG1 hinge variant G1.G5 (antibody, V domains shown)
VH: B1 VH
VL: B1 VL
notes: humanized E104.v2 VH: as the VH of Sm2 (E104.v1, PDB 6VVU heavy chain) with V71R and F78V (Kabat numbering); human IgG1 heavy chain constant region, the CH1 domain up to the upper hinge; engineered upper hinge: DKTHT of the human IgG1 upper hinge replaced by five glycines; human IgG1 heavy chain constant region after the upper hinge (core and lower hinge, CH2, CH3); IgG1 with a flexible upper …
B10: E104.v2 IgG1 hinge variant G1-H (antibody, V domains shown)
VH: B1 VH
VL: B1 VL
notes: as for B4
B11: E104.v2 IgG1 hinge variant G1 + GGS (antibody, V domains shown)
VH: B1 VH
VL: B1 VL
notes: as for B1
B12: E104.v2 IgG1 hinge variant G1 + (GGS)3 (antibody, V domains shown)
VH: B1 VH
VL: B1 VL
notes: as for B1
B13: E104.v2 IgG1 hinge variant G1-TH (antibody, V domains shown)
VH: B1 VH
VL: B1 VL
B14: humanized E104.v1 IgG1 (antibody, V domains shown)
VH: B1 VH with R71V, V78F
VL: B1 VL
B15: E104.v2 IgG1 hinge variant G1-H (antibody, V domains shown)
VH: B1 VH
VL: B1 VL
B16: E104.v2 IgG1 hinge variant G1-KTH (antibody, V domains shown)
VH: B1 VH
VL: B1 VL
B17: E104.v2 IgG1 hinge variant G1.G5 (antibody, V domains shown)
VH: B1 VH
VL: B1 VL

The binders below were run against T1, human βI-tryptase monomer (Homo sapiens, UniProt Q15661) (assay: SPR; Biacore T200; antibody captured on a CM5 chip by immobilised mouse anti-human IgG (Fc); threefold dilutions of βI-tryptase monomer injected at 30 µL/min, 25 °C, 3-min association, 10-min dissociation; 1:1 Langmuir fit; n = 2). Settings: both partners purified.
T1 construct: mature wild-type human βI-tryptase, Uniprot Q15661, Ile31-Pro275 (Ile16-Pro246 in chymotrypsinogen numbering); The SPR methods say only 'human βI-tryptase monomer'; The methods describe the monomeric form as the zymogen, which still carries the N-terminal His6 tag and enterokinase site before Ile16; also called monomeric βI-tryptase; β-tryptase; source: Trichoplusia ni cells (baculovirus, …)
T1 sequence (Q15661 31-275): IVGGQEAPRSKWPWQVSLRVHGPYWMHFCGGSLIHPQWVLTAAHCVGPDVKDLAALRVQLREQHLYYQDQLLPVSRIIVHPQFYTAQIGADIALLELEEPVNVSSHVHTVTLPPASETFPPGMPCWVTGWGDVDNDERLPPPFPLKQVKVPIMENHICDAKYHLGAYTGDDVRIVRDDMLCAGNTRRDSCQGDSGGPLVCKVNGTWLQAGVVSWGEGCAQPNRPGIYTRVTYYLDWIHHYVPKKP

| Kd | Binder |
| --- | --- |
| 0.448 nM and 0.422 nM | B1 |
| 0.537 nM and 0.672 nM | B2 |
| 0.543 nM and 0.521 nM | B3 |
| 0.56 nM and 0.471 nM | B4 |
| 0.6 nM | B5 |
| 0.538 nM and 0.521 nM | B6 |
| 0.745 nM and 0.689 nM | B7 |
| 0.522 nM and 0.401 nM | B8 |
| 0.643 nM and 0.493 nM | B9 |
| 0.68 nM and 0.494 nM | B10 |
| 0.435 nM and 0.502 nM | B11 |
| 0.626 nM and 0.41 nM | B12 |

Each binder was assayed against T2, human βI-tryptase monomer (Homo sapiens, UniProt Q15661) (assay: SPR; Biacore T200; anti-tryptase IgG variant captured on a CM5 chip with anti-human IgG (Fc) antibody; threefold dilutions of human βI-tryptase monomer injected at 30 µL/min, 25 °C, 3-min association, 10-min dissociation; 1:1 binding model; representative single sensorgram sets). Settings: both partners purified.
T2 construct: mature wild-type human βI-tryptase, Uniprot Q15661, Ile31-Pro275 (Ile16-Pro246 chymotrypsinogen numbering); also called monomeric βI-tryptase; β1-tryptase; source: Trichoplusia ni cells (baculovirus), secreted, purified (Ni-NTA, S200 SEC)
T2 sequence (Q15661 31-275): as above

| Kd [nM] | Binder |
| --- | --- |
| 0.56 | B13 |
| 0.543 | B14 |
| 0.68 | B15 |
| 0.522 | B16 |
| 0.643 | B17 |
